Measurements reported in patent US20230105029A1 (CHIA TAI TIANQING PHARMACEUTICAL GROUP, published 2023).
Residue numbers refer to the chain shown, from its start. Where two headings read alike, the source gives them in different places. One block for each binder: values may come before it.

How the values were obtained:
[1] = biological target: T1, recombinant human IL4Rα-his protein (in house made) (human, UniProt P24394 26-232, limits assumed); experiment: SPR (Biacore), antibody captured, IL4Rα-his flowed
T1 construct: also called Human IL4Ra-his
Experimental: Briefly, goat anti-mouse IgG (GE healthcare, Cat #BR100838, Mouse Antibody Capture Kit) was covalently linked to a CMS chip (carboxy methyl dextran coated chip) via primary amines, using a standard amine coupling kit provided by Biacore (GE healthcare, Pittsburgh, Pa., USA). Un-reacted moieties on the biosensor surface were blocked with ethanolamine. Then, purified anti-IL4Rα antibodies of the disclosure at the concentration of 66.67 nM and an anti-IL4Rα benchmark (Dupilumab®, also referred to as BM) at 10 μg/ml, were flowed onto the chip at a flow rate of 10 μL/min. Then, serially diluted recombinant human IL4Rα-his (in house made, amino acid sequence set forth in SEQ ID NO: 57), cynomolgus monkey IL4Rα-his protein (Sino biological inc., Cat #90897—C08H), or marmoset monkey IL4Rα-his protein (Custom made by Sino biological inc., also referred to as cal-IL4Rα-his, amino acid sequence set forth in SEQ ID NO: 58) in HBS EP buffer (provided by Biacore) was flowed onto the chip at a flow rate of 30 μL/min. The antigen-antibody association kinetics was followed for 2 minutes and the dissociation kinetics was followed for 10 minutes. The association and dissociation curves were fit to a 1:1 Langmuir binding model using BIA evaluation software.

[2] = biological target: T2, human IL4Rα expressed on 293F-IL4Rα cells (human, UniProt P24394 26-825); experiment: flow cytometry on 293F-IL4Rα cells, blocked ligand biotin human IL4
T2 construct: whole, on cells; also called cell surface human IL4Rα
Experimental: Then, 1×10⁵ cells per well in 96 well-plates were incubated in 100 μL of the anti-IL4Rα antibodies or controls of various concentrations (starting at 80 nM with a 4-fold serial dilution) in FACS buffer for 40 minutes on ice. The plates were washed twice with FACS buffer, and added and incubated for 40 minutes at 4° C. in dark with 100 μl/well 1.67 nM biotin-labeled human IL4 protein (Sino biological inc., Cat #11846-HNAE). The plates were washed twice with FACS buffer, and then added and incubated for 40 minutes at 4° C. in dark with 100 μl/well R-Phycoerythrin Streptavidin (1:500 dilution in FACS buffer, Jackson Immunoresearch, Cat #016-110-084). Cells were washed twice and resuspended in FACS buffer. Fluorescence was measured using a Becton Dickinson FACS Canto II-HTS equipment. Data was analyzed using Graphpad Prism software and IC₅₀ values were reported.

[3] = biological target: T2, human IL4Rα expressed on 293F-IL4Rα …; experiment: flow cytometry, 293F-IL4Rα cells
Experimental: (§1) Then, 2×10⁵ cells per well in 96 well-plates were incubated in 100 μL of the anti-IL4Rα antibodies or controls of various concentrations (starting at 80 nM with a 4-fold serial dilution) in FACS buffer for 40 minutes on ice. […] Following an incubation of 40 minutes at 4° C. in dark, cells were washed three times and resuspended in FACS buffer. Fluorescence was measured using a Becton Dickinson FACS Canto II-HTS equipment. Data was analyzed using Graphpad Prism software and EC₅₀ values were reported.

[4] = biological target: human IL4Rα expressed on HEK293T-IL4Rα-STAT6-STAT6LUC-LB2 cells (human, UniProt P24394 26-825); experiment: cell-based or functional assay
[5] = biological target: T2, human IL4Rα expressed on 293F-IL4Rα …; experiment: flow cytometry, 293F-IL4Rα cells; remark: listed apart in the source
Experimental: as §1

[6] = biological target: T1, recombinant human IL4Rα-his protein (in …); experiment: capture ELISA: antibody captured on anti-IgG Fc plate, biotin human IL4Rα-his detected
Experimental: Plates were washed once with wash buffer (PBS+0.05% w/v Tween-20, PBST) and then blocked with 200 μl/well blocking buffer (5% w/v non-fatty milk in PBST) for 2 hours at 37° C. Plates were washed again and incubated with 100 μl/well serially diluted anti-IL4Rα antibodies of the disclosure, the benchmark or negative control hIgG (human immunoglobulin (pH4) for intravenous injection, Hualan Biological Engineering Inc.) (5-fold dilution in 2.5% w/v non-fatty milk in PBST, starting at 66.7 nM) for 40 minutes at 37° C., and then washed 4 times again. Plates containing captured anti-IL4Rα antibodies were incubated with biotin-labeled human IL4Rα-his protein (in house made with SEQ ID NO: 57, 0.14 nM in 2.5% w/v non-fatty milk in PBST, 100 μl/well) for 40 minutes at 37° C., washed 4 times, and incubated with streptavidin conjugated HRP (1:10000 dilution in PBST, Jackson Immuno Research, Cat #016-030-084, 100 μl/well) for 40 minutes at 37° C. After a final wash, plates were incubated with 100 μl/well ELISA substrate TMB (Innoreagents, Cat #TMB-S-002). The reaction was stopped in 10 minutes at 25° C. with 50 μl/well 1M H₂SO₄, and the absorbance was read at 450 nm. Data was analyzed using Graphpad Prism software and EC₅₀ values were reported.
For the capture ELISA, 96-well micro plates were coated with 2 μg/ml goat anti-human IgG (AffiniPure Goat Anti-Human IgG, Fcγ fragment specific, Jackson Immunoresearch, Cat #109-005-098) instead of goat anti-mouse IgG Fey fragment, 100 μl/well.

[7] = biological target: T1, recombinant human IL4Rα-his protein (in …); experiment: SPR (Biacore), antibody captured, IL4Rα-his flowed; remark: listed apart in the source
[8] = biological target: T1, recombinant human IL4Rα-his protein (in …); experiment: capture ELISA, biotin-IL4Rα-his
[9] = biological target: T3, marmoset monkey IL4Rα-his protein (marmoset monkey); experiment: indirect ELISA, coated cal-IL4Rα-his
T3 construct: Custom made by Sino biological; no cleavage site stated; also called cal-IL4Rα-his; Cal-IL4Rα
T3 chain: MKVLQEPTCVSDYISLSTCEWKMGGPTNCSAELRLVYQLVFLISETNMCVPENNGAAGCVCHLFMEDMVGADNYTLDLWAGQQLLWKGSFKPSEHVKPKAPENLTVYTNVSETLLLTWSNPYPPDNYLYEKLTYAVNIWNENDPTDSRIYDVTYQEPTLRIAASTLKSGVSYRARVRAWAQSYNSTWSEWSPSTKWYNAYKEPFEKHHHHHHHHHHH

[10] = biological target: T3, marmoset monkey IL4Rα-his protein; experiment: indirect ELISA on coated cal-IL4Rα-his

B1: mouse antibody B1D2F7D3B5 (antibody, V domains shown)
VH: EVKLVESGGGLVKPGGSLKLSCAASGFTFSSYAMSWVRQTPEKRLEWVASISSGDSTYYLDSVKGRFTISRDNAMNILYLQMSSLRSEDTAVYYCERSGGSAPYWGQGTLVSVSA
VL: QIVLTQSPAIMSASPGEMVTISCSASSSVSYMYWYQQKPGSSPKPWIYRTSNLASGVPARFSGSGSGTSYSLTISSMEAEDAATYYCQQYHSFPLTFGAGTKLELK
notes: Mouse hybridoma mAb
Kd [1]: 0.623 nM | koff [1]: 0.000266 s⁻¹ | kon [1]: 427000 M⁻¹ s⁻¹ | IC50 [2]: 0.787 nM | EC50 [3]: 0.25 nM | Inhibition on IL4 induced STAT6 phosphorylation (IC50, nM) [4]: 0.17 nM | Inhibition on IL13 induced STAT6 phosphorylation (IC50, nM) [4]: 0.48 nM

B3: mouse antibody C2C1A1A1 (antibody, V domains shown)
VH: EVQLVESGGGLVQPGGSLKLSCAASGFTFSTYGMSWVRQTPDKRLELVATINSNGGSTSYPDSVKGRFTISRDNAKNTLYLQMSSLKSEDTAMFYCARFFRFRNAMDYWGQGTSVTVSS
VL: DIQMTQSPASLSASVGETVTITCRTSENIYSYLAWYQQKQGKSPQFLVYNAKTLAEGVPSRFSGSGSGTQFSLNINSLQSEDFGSYYCQHYYGPPTWTFGGGTKLEIK
notes: Mouse hybridoma mAb; also called Mouse C2C1A1A1
EC50 [5]: 0.31 nM | Kd [1]: 0.0401 nM | koff [1]: 1.16e-05 s⁻¹ | kon [1]: 290000 M⁻¹ s⁻¹ | EC50 [6]: 0.0262 nM | IC50 [2]: 0.44 nM | EC50 [3]: 0.16 nM | Inhibition on IL4 induced STAT6 phosphorylation (IC50, nM) [4]: 0.16 nM | Inhibition on IL13 induced STAT6 phosphorylation (IC50, nM) [4]: 0.23 nM | Kd [7]: 0.119 nM

B4: chimeric antibody C2C1A1A1 (antibody, human IgG4 S228P, kappa, V domains shown)
VH: B3 VH
VL: DIQMTQSPASLSASVGETVTITCRTSENIYSYLAWYQQKQGKSPQFLVYNAKTLAEGVPSRFSGSGSGTQFSLNINSLQSEDFGSYYCQHYYGPPTWTFGGGTKLEIKR
notes: Mouse variable domains on human IgG4/kappa; also called Chimeric C2C1A1A1; chC2C1A1A1
EC50 [5]: 0.63 nM | EC50 [6]: 0.0549 nM | EC50 [8]: 0.05 nM | EC50 [9]: 0.62 nM | Kd [7]: 0.522 nM

B7: chimeric antibody B8G11F2B7G5E8 (antibody, human IgG4 S228P, kappa, V domains shown)
VH: EVQLQQSGADLVRPGASVKLSCTASGFNIKDTYMHWVKQRPEQGLEWVGRIDPTNGYTIYASKFQGKATITADTSSNTAYMQLSSLTSGDTAVYHCVSRRPWFAYWGQGTLVTVSA
VL: DILMTQTPLSLPVSLGAQASISCRSSQSIVHSNGNTYLEWYLQKPGQSPKLLIYKVTNRFSGVPDRFSGSGSGTDFTLKISRVEAEDLGIYYCFQGSHVPYTFGGGTKLEIKR
notes: Mouse variable domains on human IgG4/kappa; also called Chimeric B8G11F2B7G5E8; chB8G11F2B7G5E8
EC50 [5]: 0.78 nM | EC50 [6]: 0.275 nM | EC50 [8]: 0.32 nM | EC50 [10]: 1.01 nM | EC50 [9]: 1.01 nM | Kd [7]: 2.99 nM

Next, values leading:

Kd [1]: 0.655 nM | koff [1]: 0.000274 s⁻¹ | kon [1]: 418000 M⁻¹ s⁻¹ | IC50 [2]: 0.748 nM | EC50 [3]: 0.22 nM | Inhibition on IL4 induced STAT6 phosphorylation (IC50, nM) [4]: 0.23 nM | Inhibition on IL13 induced STAT6 phosphorylation (IC50, nM) [4]: 0.36 nM
B2: mouse antibody B9D1D11F8D8 (antibody, V domains shown)
VH: B1 VH with M75R, M82V, V92M, S112T
VL: B1 VL with E17D, S30N
notes: Mouse hybridoma mAb

Kd [1]: 0.554 nM | koff [1]: 0.000139 s⁻¹ | kon [1]: 251000 M⁻¹ s⁻¹ | IC50 [2]: 0.397 nM | EC50 [3]: 0.18 nM | Inhibition on IL4 induced STAT6 phosphorylation (IC50, nM) [4]: 0.17 nM | Inhibition on IL13 induced STAT6 phosphorylation (IC50, nM) [4]: 0.31 nM
B5: mouse antibody C2B2F7B7 (antibody, V domains shown)
VH: B3 VH with S59N, F94Y, F102I
VL: B3 VL with T25A, N74K, S80P, P94T
notes: Mouse hybridoma mAb

EC50 [5]: 0.41 nM | Kd [1]: 1.49 nM | koff [1]: 0.000293 s⁻¹ | kon [1]: 197000 M⁻¹ s⁻¹ | EC50 [6]: 0.143 nM | IC50 [2]: 0.804 nM | EC50 [3]: 0.25 nM | EC50 [8]: 0.21 nM | EC50 [10]: 0.873 nM | EC50 [9]: 0.87 nM | Inhibition on IL4 induced STAT6 phosphorylation (IC50, nM) [4]: 0.23 nM | Inhibition on IL13 induced STAT6 phosphorylation (IC50, nM) [4]: 0.47 nM | Kd [7]: 2.98 nM
B6: mouse antibody B8G11F2B7G5E8 (antibody, V domains shown)
VH: B7 VH
VL: DILMTQTPLSLPVSLGAQASISCRSSQSIVHSNGNTYLEWYLQKPGQSPKLLIYKVTNRFSGVPDRFSGSGSGTDFTLKISRVEAEDLGIYYCFQGSHVPYTFGGGTKLEIK
notes: Mouse hybridoma mAb; also called Mouse B8G11F2B7G5E8; mAb B8G11F2B7G5E8
